Data reported in patent US20210324359A1, “USE OF GRAM-NEGATIVE LYSIN-ANTIMICROBIAL PEPTIDE (AMP) POLYPEPTIDE CONSTRUCTS IN TREATING ENDOCARDITIS” (priority 2020, published 2021).

Test system: biofilms formed by P. aeruginosa strain ATCC 17646
Conditions: strain ATCC 17646 biofilm
Protocol: Biofilms are then washed and treated with e.g., a 2-fold dilution series of the lysin in TSBg at e.g., 37° C. for 24 hours. After treatment, wells are washed, air-dried at e.g., 37° C. and stained with e.g., 0.05% crystal violet for 10 minutes.

B1: GN370: lysin-AMP construct: MIDR, FIRL and NPTH moieties N-terminal to GN202 lysin (SEQ ID NO: 44) (protein)
chain: MIDRFIRLNPTHGPRRPRRPGRRAPVRTSQRGIDLIKSFEGLRLSAYQDSVGVWTIGYGTTRGVTRYMTITVEQAERMLSNDIQRFEPELDRLAKVPLNQNQWDALMSFVYNLGAANLASSTLLDLLNKGDYQGAADQFPHWVNAGGKRLDGLVKRRAAERALFLEPLS
For B1, the MBEC was 1 µg/mL.
